Reference: patent US9187525B2, “Methods of treating ophthalmic diseases using NPR-B agonists” (Shire Orphan Therapies GmbH, dated 2015)
Numbered stars: 1 amine (or outer) side, 2 acyl side, 3 side chain; on linkers, the order of the positions; unused ones are H or OH. Square brackets hold non-standard residues; d marks the D form. Ends that are not written are not given here. * marks the point of attachment. Ebe = (R)-2-amino-3-(methylsulfanyl)propanoic acid, CSC[C@H](N[*:1])C(=O)[*:2]; Sni = (S)-nipecotic acid, O=C([C@H]1CCCN([*:1])C1)[*:2]; Phe(3-CF3) = N[C@@H](Cc1cccc(C(F)(F)F)c1)C(=O)O; Azetidine3carboxylic = O=C(C1CN([*:1])C1)[*:2]; Phe(4-Cl) = N[C@@H](Cc1ccc(Cl)cc1)C(=O)O; Phe(3-Me) = Cc1cccc(C[C@H](N)C(=O)O)c1; Hyp = O=C(O)[C@@H]1C[C@@H](O)CN1; NMeF = CN[C@@H](Cc1ccccc1)C(=O)O; 2Thi = N[C@@H](Cc1cccs1)C(=O)O; 3Thi = N[C@@H](Cc1ccsc1)C(=O)O; NMeL = CN[C@@H](CC(C)C)C(=O)O; Tle = CC(C)(C)[C@H](N)C(=O)O; hLeu = CC(C)CC[C@H](N)C(=O)O; dNle = CCCC[C@@H](N)C(=O)O; dNva = CCC[C@@H](N)C(=O)O; hSer = N[C@@H](CCO)C(=O)O; Octanoyl = CCCCCCCC(=O)*; Thz = O=C(O)[C@@H]1CSCN1; dAbu = CC[C@@H](N)C(=O)O; dDap = NC[C@@H](N)C(=O)O; Nva = CCC[C@H](N)C(=O)O; Hexanoyl = CCCCCC(=O)*; asn = not defined here; leu = not defined here; nle = not defined here; Occ = octanoic acid

T1: natriuretic peptide receptor-B (human)
T1 chain: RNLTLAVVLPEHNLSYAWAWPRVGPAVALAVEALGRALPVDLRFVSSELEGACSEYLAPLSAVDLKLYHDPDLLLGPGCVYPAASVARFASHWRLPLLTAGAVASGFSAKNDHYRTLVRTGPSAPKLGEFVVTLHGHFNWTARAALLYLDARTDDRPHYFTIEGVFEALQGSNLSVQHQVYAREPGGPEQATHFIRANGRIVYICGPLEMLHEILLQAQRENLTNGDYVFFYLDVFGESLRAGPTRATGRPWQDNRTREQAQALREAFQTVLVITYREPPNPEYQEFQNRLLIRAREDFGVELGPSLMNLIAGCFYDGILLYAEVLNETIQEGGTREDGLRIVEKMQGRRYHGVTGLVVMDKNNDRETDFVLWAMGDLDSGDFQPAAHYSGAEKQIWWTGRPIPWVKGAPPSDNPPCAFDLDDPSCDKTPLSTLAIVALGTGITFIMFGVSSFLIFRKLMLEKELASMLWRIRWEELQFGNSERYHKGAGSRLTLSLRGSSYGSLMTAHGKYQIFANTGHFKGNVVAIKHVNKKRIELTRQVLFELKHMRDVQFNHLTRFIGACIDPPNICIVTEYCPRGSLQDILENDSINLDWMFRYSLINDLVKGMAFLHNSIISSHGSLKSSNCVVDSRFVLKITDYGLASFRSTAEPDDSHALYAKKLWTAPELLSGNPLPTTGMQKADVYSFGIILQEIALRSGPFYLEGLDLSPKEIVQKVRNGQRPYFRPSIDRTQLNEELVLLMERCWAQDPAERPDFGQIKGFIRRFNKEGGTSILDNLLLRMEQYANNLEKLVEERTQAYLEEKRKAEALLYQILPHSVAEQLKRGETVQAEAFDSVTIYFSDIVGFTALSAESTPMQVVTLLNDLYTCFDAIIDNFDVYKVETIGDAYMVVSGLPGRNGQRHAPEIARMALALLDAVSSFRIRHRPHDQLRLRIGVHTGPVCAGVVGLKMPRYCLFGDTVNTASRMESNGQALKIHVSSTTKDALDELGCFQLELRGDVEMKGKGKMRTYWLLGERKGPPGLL

B1: JAL-1006 (peptide)
peptide: [Occ]A[Phe(3-Me)]GLPLDRI-NH2
modifications: not fully specified (residue 2); printed as Occ-ala-Mmf-Gly-Leu-Pro-Leu-Asp-Arg-Ile-NH2
B2: JAL-1011 (peptide)
peptide: [Occ]AFTLPLDRI-NH2
modifications: not fully specified (residues 2, 4); printed as Occ-ala-Phe-thr-Leu-Pro-Leu-Asp-Arg-Ile-NH2
B3: JAL-1013 (peptide)
peptide: [Occ]AF[leu]LPLDRI-NH2
modifications: not fully specified (residue 2); printed as Occ-ala-Phe-leu-Leu-Pro-Leu-Asp-Arg-Ile-NH2; reading uncertain
B4: JAL-1014 (peptide)
peptide: [Occ]AF[nle]LPLDRI-NH2
modifications: not fully specified (residue 2); printed as Occ-ala-Phe-nle-Leu-Pro-Leu-Asp-Arg-Ile-NH2; reading uncertain
B5: JAL-1017 (peptide)
peptide: [Occ]AF[asn]LPLDRI-NH2
modifications: not fully specified (residue 2); printed as Occ-ala-Phe-asn-Leu-Pro-Leu-Asp-Arg-Ile-NH2; reading uncertain
B6: JAL-0995 (peptide)
peptide: [Occ]AFGIPLDRI-NH2
modifications: not fully specified (residue 2); printed as Occ-ala-Phe-Gly-Ile-Pro-Leu-Asp-Arg-Ile-NH2
B7: JAL-0993 (peptide)
peptide: [Occ]AFGLPL[hSer]RI-NH2
modifications: not fully specified (residue 2); printed as Occ-ala-Phe-Gly-Leu-Pro-Leu-Hse-Arg-Ile-NH2
B8: JAL-0980 (peptide)
peptide: [Occ]AFGL[Thz]LDRI-NH2
modifications: not fully specified (residue 2); printed as Occ-ala-Phe-Gly-Leu-Eaz-Leu-Asp-Arg-Ile-NH2
B9: JAL-0989 (peptide)
peptide: [Occ]AFGLPLDR[Tle]-NH2
modifications: not fully specified (residue 2); printed as Occ-ala-Phe-Gly-Leu-Pro-Leu-Asp-Arg-Tbg-
B10: JAL-0996 (peptide)
peptide: [Occ]AFG[Nva]PLDRI-NH2
modifications: not fully specified (residue 2); printed as Occ-ala-Phe-Gly-Nva-Pro-Leu-Asp-Arg-Ile-NH2
B11: JAL-0992 (peptide)
peptide: [Occ]AFGLPLSRI-NH2
modifications: not fully specified (residue 2); printed as Occ-ala-Phe-Gly-Leu-Pro-Leu-Ser-Arg-Ile-NH2
B12: JAL-1010 (peptide)
peptide: [Occ]AFSLPLDRI-NH2
modifications: not fully specified (residues 2, 4); printed as Occ-ala-Phe-ser-Leu-Pro-Leu-Asp-Arg-Ile-NH2
B13: JAL-1003 (peptide)
peptide: [Occ]A[3Thi]GLPLDRI-NH2
modifications: not fully specified (residue 2); printed as Occ-ala-Thk-Gly-Leu-Pro-Leu-Asp-Arg-Ile-NH2
B14: JAL-1002 (peptide)
peptide: [Occ]A[Phe(4-Cl)]GLPLDRI-NH2
modifications: not fully specified (residue 2); printed as Occ-ala-Pcf-Gly-Leu-Pro-Leu-Asp-Arg-Ile-NH2
B15: JAL-1005 (peptide)
peptide: [Occ]A[Phe(3-CF3)]GLPLDRI-NH2
modifications: not fully specified (residue 2); printed as Occ-ala-Mtf-Gly-Leu-Pro-Leu-Asp-Arg-Ile-NH2
B16: JAL-1016 (peptide)
peptide: [Occ]AFGL[Hyp][NMeL]DRI-NH2
modifications: not fully specified (residue 2); printed as Occ-ala-Phe-Gly-Leu-Hyp-Nml-Asp-Arg-Ile-
B17: JAL-1012 (peptide)
peptide: [Occ]AFVLPLDRI-NH2
modifications: not fully specified (residues 2, 4); printed as Occ-ala-Phe-val-Leu-Pro-Leu-Asp-Arg-Ile-NH2
B18: JAL-1000 (peptide)
peptide: [Occ]A[2Thi]GLPLDRI-NH2
modifications: not fully specified (residue 2); printed as Occ-ala-Thi-Gly-Leu-Pro-Leu-Asp-Arg-Ile-NH2
B19: JAL-0998 (peptide)
peptide: [Occ]AFG[hLeu]PLDRI-NH2
modifications: not fully specified (residue 2); printed as Occ-ala-Phe-Gly-Hle-Pro-Leu-Asp-Arg-Ile-NH2

Biological target: T1, natriuretic peptide receptor-B
Test: cell-based or functional assay

| Binder | EC50 group, cGMP in GTM-3 cells |
| --- | --- |
| Octanoyl-[dA]F[dNva]L[Hyp]LDRI-NH2 [JAL-1027] | ≤ 5 µM |
| B1 | ≤ 15 µM |
| Octanoyl-[dA]F[dM]LPLDRI-NH2 [JAL-1018] | ≤ 5 µM |
| B2 | ≤ 5 µM |
| Octanoyl-[dA]F[dF]L[Hyp]LDRI-NH2 [JAL-1028] | ≤ 5 µM |
| B3 | ≤ 5 µM |
| B4 | ≤ 5 µM |
| B5 | ≤ 5 µM |
| Octanoyl-[Sni]F[dNle]LPLDRI-NH2 [JAL-1021] | ≤ 5 µM |
| B6 | ≤ 15 µM |
| Octanoyl-[Sni][NMeF][dNle]LPLDRI-NH2 [JAL-1022] | ≤ 5 µM |
| B7 | ≤ 15 µM |
| Hexanoyl-A[dA]FGLKLDRISA-NH2 [JAL-0536] | ≤ 5 µM |
| Octanoyl-[dA]F[dDap]LPLDRI-NH2 [JAL-1020] | ≤ 5 µM |
| B8 | ≤ 15 µM |
| B9 | ≤ 15 µM |
| [Occ][Sni]FGL[Hyp][NMeL]DRI-NH2 [JAL-1015] | ≤ 5 µM |

| Binder | EC50 group, cGMP in GTM-3 cells |
| --- | --- |
| B10 | ≤ 15 µM |
| Octanoyl-[dA]F[dAbu]LPLDRI-NH2 [JAL-1019] | ≤ 5 µM |
| B11 | ≤ 15 µM |
| B12 | ≤ 5 µM |
| Octanoyl-[dA]F[dL]L[Hyp]LDRI-NH2 [JAL-1026] | ≤ 5 µM |
| B13 | ≤ 15 µM |
| B14 | ≤ 15 µM |
| Octanoyl-[dA]F[dNle]L[Hyp]LDRI-NH2 [JAL-1025] | ≤ 5 µM |
| Octanoyl-[Sni]F[dNle]L[Hyp]LDRI-NH2 [JAL-1024] | ≤ 1 µM |
| [Occ][Azetidine3carboxylic]FGLPLDRI-NH2 [JAL-0985] | ≤ 15 µM |
| B15 | ≤ 15 µM |
| B16 | ≤ 5 µM |
| Hexanoyl-[Ebe][dP]FGLKIDRIS[Ebe]-NH2 [JAL-0534] | ≤ 15 µM |
| B17 | ≤ 15 µM |
| Hexanoyl-S[dA]FGLKLDRISS-NH2 [JAL-0535] | ≤ 15 µM |
| B18 | ≤ 15 µM |
| B19 | ≤ 15 µM |
